Results reported in paper PMC3117017.

Molecular target: Nluc2-H2AX (N-terminal fragment of firefly luciferase 2 fused to the N-terminus of histone H2AX) (UniProt P16104)
Experiment: split reporter

reporter activity, fold above background (within 3 hour of 6 Gy x-rays): 5 fold
Substance: MDC1 BRCT domain fused to the C-terminal fragment of firefly luciferase 2 (Cluc) (domain or fragment)
